These are literature values, as cited in PMC8745658.

The target of the data set is Cytochrome b5 soluble isoform (Homo sapiens) (UniProt P00167). The data set can be described thus: flavin autofluorescence.
Chain of UniProt P00167 (P00167 2-98): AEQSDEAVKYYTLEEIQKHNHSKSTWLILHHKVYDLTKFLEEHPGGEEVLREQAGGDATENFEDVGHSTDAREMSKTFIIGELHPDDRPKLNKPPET

As for “Cytochrome b5 reductase soluble isoform (from UniProt P00387)”, the Kd was 0.5 µM.

By Kd is commonly meant the concentration at which binding is half-saturated.
